The target in one assay is T1, Dvl2 FL F277A/M300A (human, UniProt O14641 1-736, F277A | M300A).
T1 sequence (looked up): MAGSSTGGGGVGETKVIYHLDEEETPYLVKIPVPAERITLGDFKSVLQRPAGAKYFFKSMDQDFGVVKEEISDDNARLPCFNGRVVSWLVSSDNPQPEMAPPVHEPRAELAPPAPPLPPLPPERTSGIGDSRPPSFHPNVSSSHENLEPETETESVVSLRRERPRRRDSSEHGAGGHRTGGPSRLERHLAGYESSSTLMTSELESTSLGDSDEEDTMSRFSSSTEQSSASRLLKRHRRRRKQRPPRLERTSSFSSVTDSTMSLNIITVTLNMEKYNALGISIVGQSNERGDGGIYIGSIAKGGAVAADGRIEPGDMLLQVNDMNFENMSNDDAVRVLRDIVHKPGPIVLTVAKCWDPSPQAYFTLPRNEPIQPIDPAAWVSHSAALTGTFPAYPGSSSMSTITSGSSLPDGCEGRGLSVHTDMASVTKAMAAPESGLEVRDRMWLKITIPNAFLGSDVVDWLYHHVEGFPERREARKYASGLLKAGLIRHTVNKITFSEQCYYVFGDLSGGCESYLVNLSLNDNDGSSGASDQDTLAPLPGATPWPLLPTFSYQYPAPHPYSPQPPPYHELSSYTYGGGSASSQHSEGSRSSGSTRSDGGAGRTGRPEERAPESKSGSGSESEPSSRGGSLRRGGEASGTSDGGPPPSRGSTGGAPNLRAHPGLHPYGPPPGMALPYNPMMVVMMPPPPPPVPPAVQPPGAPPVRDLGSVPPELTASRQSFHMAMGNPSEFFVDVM
The experiment in a line: pull-down.

The target of the next assay is T2, Dvl2 full-length protein (human, UniProt O14641 1-736).
T2 sequence (looked up): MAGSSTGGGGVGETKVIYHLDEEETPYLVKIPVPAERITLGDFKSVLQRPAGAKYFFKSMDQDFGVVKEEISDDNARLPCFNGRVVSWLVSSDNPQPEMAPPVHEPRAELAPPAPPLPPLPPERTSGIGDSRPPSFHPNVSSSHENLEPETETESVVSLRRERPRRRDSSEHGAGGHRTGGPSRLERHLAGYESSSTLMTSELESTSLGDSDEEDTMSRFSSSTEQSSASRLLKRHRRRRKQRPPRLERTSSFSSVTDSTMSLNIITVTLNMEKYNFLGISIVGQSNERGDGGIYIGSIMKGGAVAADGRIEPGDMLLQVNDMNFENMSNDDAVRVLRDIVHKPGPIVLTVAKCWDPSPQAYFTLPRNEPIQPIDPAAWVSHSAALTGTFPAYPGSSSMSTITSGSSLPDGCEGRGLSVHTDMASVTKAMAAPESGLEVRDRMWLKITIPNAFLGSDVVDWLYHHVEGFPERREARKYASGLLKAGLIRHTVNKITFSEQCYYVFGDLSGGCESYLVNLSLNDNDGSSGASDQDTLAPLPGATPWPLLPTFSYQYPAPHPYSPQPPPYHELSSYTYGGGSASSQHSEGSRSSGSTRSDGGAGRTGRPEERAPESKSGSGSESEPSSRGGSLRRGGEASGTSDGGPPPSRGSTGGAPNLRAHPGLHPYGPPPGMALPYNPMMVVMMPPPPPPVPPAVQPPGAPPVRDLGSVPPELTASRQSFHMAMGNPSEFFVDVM
The experiment in a line: pull-down.

The values that follow come from publication PMC4100210 (Nature communications, 2014).

Ends that are not written are not given here.

With {GST}-GKTLQSWRRFYHRLSHSSKGETAV [GST-Fz7 fusion peptide (GST-GKTLQSWRRFYHRLSHSSKGETAV)], the binding result with Dvl2 FL F277A/M300A and in the assay with Dvl2 full-length protein was “binds” in each case.
